This test concerns the target T1, strep II-tagged full-length C. elegans separase (C. elegans, UniProt G5ED39 1-1262).
T1 construct: separase, Caenorhabditis elegans, full length (residues up to 1262; molecular weight 144.2 kDa); Vector pFBDM-strepII: double strepII tag with a PreScission cleavage site; also called strep II-tagged separase; source: Sf9 insect cells, co-expressed with securin, purified as complex (StrepTactin, SEC)
T1 sequence (looked up): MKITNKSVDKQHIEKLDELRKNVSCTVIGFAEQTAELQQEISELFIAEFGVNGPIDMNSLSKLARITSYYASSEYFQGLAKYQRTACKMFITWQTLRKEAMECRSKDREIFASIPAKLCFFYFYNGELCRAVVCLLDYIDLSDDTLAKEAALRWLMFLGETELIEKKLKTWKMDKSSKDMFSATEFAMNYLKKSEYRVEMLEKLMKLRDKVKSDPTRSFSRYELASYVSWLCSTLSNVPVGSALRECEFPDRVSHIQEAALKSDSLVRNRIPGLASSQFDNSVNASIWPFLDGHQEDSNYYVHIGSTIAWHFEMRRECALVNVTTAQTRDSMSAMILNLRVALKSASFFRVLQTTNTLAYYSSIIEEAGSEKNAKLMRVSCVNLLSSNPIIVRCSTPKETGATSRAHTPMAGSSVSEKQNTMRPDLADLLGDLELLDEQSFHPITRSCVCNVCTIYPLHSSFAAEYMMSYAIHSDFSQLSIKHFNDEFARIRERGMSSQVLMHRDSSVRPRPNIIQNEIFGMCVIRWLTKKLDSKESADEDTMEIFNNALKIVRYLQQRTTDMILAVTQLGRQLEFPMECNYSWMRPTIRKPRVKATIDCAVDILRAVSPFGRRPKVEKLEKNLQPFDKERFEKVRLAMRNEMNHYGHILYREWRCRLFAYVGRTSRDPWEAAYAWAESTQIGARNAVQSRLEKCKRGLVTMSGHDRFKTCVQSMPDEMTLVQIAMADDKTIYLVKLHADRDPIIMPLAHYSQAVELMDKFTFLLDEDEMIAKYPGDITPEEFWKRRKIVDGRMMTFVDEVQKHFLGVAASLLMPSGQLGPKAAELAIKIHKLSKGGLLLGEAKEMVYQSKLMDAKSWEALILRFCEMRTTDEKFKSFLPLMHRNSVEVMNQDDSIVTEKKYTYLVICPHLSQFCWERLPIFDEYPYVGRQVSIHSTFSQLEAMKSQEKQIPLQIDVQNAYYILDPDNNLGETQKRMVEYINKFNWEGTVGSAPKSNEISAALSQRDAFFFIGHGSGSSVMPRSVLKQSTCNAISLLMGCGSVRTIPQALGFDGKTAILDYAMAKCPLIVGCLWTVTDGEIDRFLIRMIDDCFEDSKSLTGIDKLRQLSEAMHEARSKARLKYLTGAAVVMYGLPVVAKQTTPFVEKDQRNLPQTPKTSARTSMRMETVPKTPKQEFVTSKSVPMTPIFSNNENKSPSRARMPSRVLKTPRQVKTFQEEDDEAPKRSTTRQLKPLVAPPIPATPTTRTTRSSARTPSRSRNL
The experiment in a line: SEC-MALS; 1 mg/ml purified complex on Superose 6 10/300; 50 mM sodium phosphate, 100 mM NaCl, 20 mM NaF, 10% glycerol, 5 mM 2-mercaptoethanol, 3 mM sodium azide, pH 8.0. The conditions noted are these: both partners purified. In general terms: In gel filtration, larger molecules generally elute earlier.

Usually stoichiometry N stands for a count of units in the complex or per binding partner.

B1: full-length C. elegans securin (co-expressed with StrepII-tagged separase) (natural protein, UniProt Q18235 1-244, looked up)
chain: MEDLNFEERGSTQIPASLQQHFSAKLGRQNELEKTPSRGGLGLVVNSSKTPGGKSLQSLASACKVPPSTKKNTIPIAFECYEDETDDQIADVATIKKTEKHPCSPIDTANRCETFDSLAADIEDDMLNLEDQDVVLSEDRPYGDVIDPAESEAEALAELGVEEWDSYPPIDPASRIGDDFNYVLRTEDFAEEGDVKLEETRHRTVIADIDEVKMSKAERNELFSMLADDLDSYDLLAEEANLPL
notes: it may be the same construct as m2; also called securin FL; source: Sf9 insect cells, co-expressed with StrepII-separase; in soluble lysate (pull-down) and purified as complex (StrepTactin, SEC)
Regarding B1, the “stoichiometry N” value is 1.

The values above are taken from paper PMC4852461, “A closed conformation of the Caenorhabditis elegans separase–securin complex” (Open Biology, 2016).
